Source: patent US20230257457A1 (published 2023)

Target: T1, thioredoxin (Escherichia coli (strain K12), UniProt P0AA25 2-109 = thioredoxin)
T1 construct: Negative control antigen; also called Trx; TrxA
Experiment: ELISA (FIG. 64)

T1 sequence (P0AA25 2-109 limits assumed): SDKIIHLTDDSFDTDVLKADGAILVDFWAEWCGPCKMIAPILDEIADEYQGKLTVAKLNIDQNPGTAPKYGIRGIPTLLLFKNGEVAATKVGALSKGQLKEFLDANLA

B1: mouse human chimeric anti-R273H p53 antibody clone MH 13E4 (antibody, human IgG1, V domains shown)
VH: EVQLLETGGDLVTPGGSLKLSCAASGFSFSDYYMYWVRQTPEKRLEWVATISVGGTYTFYSDNVKGRFVISRDNARKNLHLEMNSLKSEDAAMYYCVRDGNDGKFLGYWGQGTFVTVTV
VL: DIVMTQSPLSLPVNLGDQVSLSCRSSQSIVHNNGDTYLEWYLQKPGQSPKLLIYKVSNRFSGVPDRFSGSGSGTDFTLKISRVEAEDLGIYYCFQGSHLPLTFGSGTKLELK
notes: Mouse Fv with human IgG1 constant region; also called chimeric 13E4
- binding result: no binding (tested: 1 ng/µl)
